± gives the uncertainty stated by the source.
Test: self-splicing fitness, log relative to wild type (ln ratio); higher = more splicing; Tetrahymena group I intron in knt gene, E. coli kanamycin selection, DiMSum; sequences stand for … in CUCUCU…GGAGGGAAAAGUUAUCAGGCAUGCACCUGGUAGCUAGUCUUUAAACCAAUAGAUUGCAUCGGUUUAAAAGGCAAGACCGUCAAAUUGCGGGAAAGGGGUCAACAGCCGUUCAGUACCAAGUCUCAGGGGAAACUUUGAGAUGGCCUUGCAAAGGGUAUGGUAAUAAGCUGACGGACAUGGUCCUAACCACGCAGCCAAGUCCUAAGUCAACAGAUCUUCUGUUGAUAUGGAUGCAGUUCACAGACUAAAUGUCGGUCGGGGAAGAUGUAUUCUUCUCAUAAGAUAUAGUCGGACCUCUCCUUAAUGGGAGCUAGCGGAUGAAGUGAUGCAACACUGGAGCCGCUGGGAACUAAUUUGUAUGCGAAAGUAUAUUGAUUAGUUUUGGAGUACUCGUGGUCG
Procedure, shortened: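 Colonies from six replicate transformations of E. coli BL21(DE3) were pooled and amplicon-sequenced on an Illumina HiSeq 2500. The library placed an intron with all eight P1ex-region nucleotides randomised inside the knt kanamycin-resistance gene on pET-22b(+), and cells grew overnight at 37°C or 30°C on LB agar with or without 25 μg/mL kanamycin (plus 100 μg/mL carbenicillin, 50 μM IPTG, 0.2% rhamnose). Fitness is the DiMSum error-weighted combination of wild-type-normalised replicate fold changes, kanamycin versus none.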

Sequence	self-splicing fitness (ln) (30 °C)	self-splicing fitness (ln) (37 °C)
GUUUAGCAAUAUUACGUGCA	-0.885 ± 0.099	-0.958 ± 0.11
GUUUAGCAAUAUUACGUUUC	-2.17 ± 0.21	-2.07 ± 0.23
UAAAAGCAAUAUUACGACAC	-1.88 ± 0.15	-0.594 ± 0.17
UAAAAGCAAUAUUACGAUCG	0.0746 ± 0.077	0.385 ± 0.1
UAAAAGCAAUAUUACGCCUA	0.161 ± 0.073	-0.367 ± 0.081
UAAAAGCAAUAUUACGCUAU	-2.11 ± 0.15	-2.2 ± 0.19
UAAAAGCAAUAUUACGCUCA	-0.334 ± 0.11	0.128 ± 0.12
UAAAAGCAAUAUUACGCUCG	-0.628 ± 0.084	0.0432 ± 0.099
UAAAAGCAAUAUUACGGCCA	0.0708 ± 0.15	0.573 ± 0.19
UAAAAGCAAUAUUACGGCGC	-1.64 ± 0.12	-0.483 ± 0.13
UAAAAGCAAUAUUACGGUAA	-1.94 ± 0.14	-0.97 ± 0.098
UAAAAGCAAUAUUACGUCAC	-3 ± 0.2	-2.25 ± 0.28
UAAAAGCAAUAUUACGUCAU	-3.62 ± 0.14	-1.88 ± 0.1
UAAAAGCAAUAUUACGUGAC		-3.43 ± 0.46
UAACAGCAAUAUUACGAAUG	-0.844 ± 0.085	-0.788 ± 0.098
UAACAGCAAUAUUACGACAC	-3.35 ± 0.16	-0.676 ± 0.11
UAACAGCAAUAUUACGACGU	-1.16 ± 0.071	-0.452 ± 0.091
UAACAGCAAUAUUACGAGCA	-1.22 ± 0.1	-0.317 ± 0.1
UAACAGCAAUAUUACGAGGG	-3.58 ± 0.2	-3.12 ± 0.22
UAACAGCAAUAUUACGAUAG	-1.21 ± 0.11	-0.506 ± 0.12
UAACAGCAAUAUUACGAUGC	-3.84 ± 0.33	-2.35 ± 0.26
UAACAGCAAUAUUACGCAUA	-0.955 ± 0.075	-0.0703 ± 0.069
UAACAGCAAUAUUACGCCAA	-3.04 ± 0.19	-1.38 ± 0.14
UAACAGCAAUAUUACGCGGG	-2.44 ± 0.1	-1.18 ± 0.078
UAACAGCAAUAUUACGCUAG	-1.81 ± 0.071	-0.992 ± 0.08

Sequence	self-splicing fitness (ln) (30 °C)	self-splicing fitness (ln) (37 °C)
UAACAGCAAUAUUACGGACU	-1.02 ± 0.064	-0.504 ± 0.089
UAACAGCAAUAUUACGGCGG	-0.643 ± 0.053	-0.105 ± 0.068
UAACAGCAAUAUUACGGCGU	-1.79 ± 0.11	-1.01 ± 0.1
UAACAGCAAUAUUACGGUCC	-2.94 ± 0.15	-1.99 ± 0.19
UAACAGCAAUAUUACGUGCU	-3.33 ± 0.16	-2.28 ± 0.16
UAACAGCAAUAUUACGUUGU	-4.18 ± 0.16	-2.67 ± 0.14
UAAGAGCAAUAUUACGAGAA		-1.68 ± 0.46
UAAGAGCAAUAUUACGAGCU	-2.93 ± 0.3	-2.6 ± 0.44
UAAGAGCAAUAUUACGAGGC		-1.97 ± 0.41
UAAGAGCAAUAUUACGAGUA	-2.94 ± 0.19	-2.66 ± 0.21
UAAGAGCAAUAUUACGAUUU	-2.44 ± 0.17	-0.0704 ± 0.12
UAAGAGCAAUAUUACGCAUC	-4.23 ± 0.3	-3.46 ± 0.37
UAAGAGCAAUAUUACGCGCC		-1.6 ± 0.38
UAAGAGCAAUAUUACGGACA	-1.78 ± 0.25	-2.31 ± 0.35
UAAGAGCAAUAUUACGGCUU	-2.3 ± 0.2	-1.44 ± 0.22
UAAGAGCAAUAUUACGGGGG	-2.94 ± 0.22	
UAAGAGCAAUAUUACGGGUC		-1.7 ± 0.41
UAAGAGCAAUAUUACGUACA	-2.95 ± 0.37	-1.59 ± 0.4
UAAGAGCAAUAUUACGUCGU	-4.06 ± 0.31	-3.11 ± 0.43
UAAGAGCAAUAUUACGUCUG	-1.54 ± 0.093	-0.00255 ± 0.11
UAAGAGCAAUAUUACGUGUU	-3.32 ± 0.18	-2.96 ± 0.3
UAAGAGCAAUAUUACGUUGA		-1.97 ± 0.19
UAAGAGCAAUAUUACGUUGU	-1.95 ± 0.2	-0.367 ± 0.31
UAAUAGCAAUAUUACGAUUA	-1.04 ± 0.13	0.0261 ± 0.14
UAAUAGCAAUAUUACGCAAU	-3.5 ± 0.23	-2.4 ± 0.26

Sequence	self-splicing fitness (ln) (30 °C)	self-splicing fitness (ln) (37 °C)
UAAUAGCAAUAUUACGCCUC	-2.77 ± 0.35	-1.53 ± 0.38
UAAUAGCAAUAUUACGCGUC	-2.88 ± 0.36	-2 ± 0.38
UAAUAGCAAUAUUACGCUAG	-2.46 ± 0.12	-0.773 ± 0.14
UAAUAGCAAUAUUACGCUUC		-1.72 ± 0.29
UAAUAGCAAUAUUACGGAAU	-2.77 ± 0.2	-1.76 ± 0.2
UAAUAGCAAUAUUACGGAGG	-3.17 ± 0.24	-2.83 ± 0.4
UAAUAGCAAUAUUACGGGCU	-3.28 ± 0.27	-2.16 ± 0.19
UAAUAGCAAUAUUACGGGGU	-3.73 ± 0.42	-1.38 ± 0.45
UAAUAGCAAUAUUACGGUAA		-1.04 ± 0.28
UAAUAGCAAUAUUACGGUCC	-2.53 ± 0.33	
UAAUAGCAAUAUUACGGUUU	-2.92 ± 0.19	-1.39 ± 0.18
UAAUAGCAAUAUUACGUACG	-2.13 ± 0.13	-1.16 ± 0.17
UAAUAGCAAUAUUACGUCUA	-0.149 ± 0.084	0.263 ± 0.087
UAAUAGCAAUAUUACGUGAU	-4.15 ± 0.37	-1.61 ± 0.21
UAAUAGCAAUAUUACGUGUA	-2.19 ± 0.12	-0.918 ± 0.1
UAAUAGCAAUAUUACGUUUC	-2.95 ± 0.45	-1.35 ± 0.23
UAAUAGCAAUAUUACGUUUG	-0.989 ± 0.099	0.00265 ± 0.12
UACAAGCAAUAUUACGAACG	-0.239 ± 0.065	-0.0708 ± 0.08
UACAAGCAAUAUUACGACCA	-0.29 ± 0.12	-0.203 ± 0.16
UACAAGCAAUAUUACGACUU	-1.19 ± 0.081	-0.692 ± 0.097
UACAAGCAAUAUUACGAGCC	-2.24 ± 0.48	
UACAAGCAAUAUUACGAGGU	-4.06 ± 0.28	-1.94 ± 0.28
UACAAGCAAUAUUACGAUCA	-0.336 ± 0.079	0.387 ± 0.11
UACAAGCAAUAUUACGAUGC	-3.69 ± 0.28	-3.13 ± 0.29
UACAAGCAAUAUUACGCACA	-1.23 ± 0.11	-0.242 ± 0.11

Sequence	self-splicing fitness (ln) (30 °C)	self-splicing fitness (ln) (37 °C)
UACAAGCAAUAUUACGCAUU	-3.38 ± 0.19	-1.63 ± 0.16
UACAAGCAAUAUUACGCGAU	-3.74 ± 0.32	-1.3 ± 0.2
UACAAGCAAUAUUACGCGCU	-1.39 ± 0.12	-0.322 ± 0.11
UACAAGCAAUAUUACGCGUU	-2.57 ± 0.096	-1.71 ± 0.093
UACAAGCAAUAUUACGCUAU	-3.38 ± 0.13	-1.83 ± 0.11
UACAAGCAAUAUUACGGAGA	-2.4 ± 0.17	-3.27 ± 0.23
UACAAGCAAUAUUACGGAGG	-3.94 ± 0.22	-2.03 ± 0.16
UACAAGCAAUAUUACGGAUG	-1.16 ± 0.078	-0.694 ± 0.11
UACAAGCAAUAUUACGUAAC	-4.15 ± 0.16	-2.28 ± 0.15
UACAAGCAAUAUUACGUGGA	-2.82 ± 0.15	-2.27 ± 0.11
UACAAGCAAUAUUACGUUAU	-3.39 ± 0.19	-1.81 ± 0.1
UACAAGCAAUAUUACGUUUG	-3.72 ± 0.13	-2.57 ± 0.15
UACCAGCAAUAUUACGAGAA	-1.72 ± 0.14	-1.22 ± 0.13
UACCAGCAAUAUUACGAGGA	-1.63 ± 0.14	-1.24 ± 0.12
UACCAGCAAUAUUACGAUAU	-2.78 ± 0.12	-1.32 ± 0.12
UACCAGCAAUAUUACGAUUA	-0.0875 ± 0.065	0.118 ± 0.075
UACCAGCAAUAUUACGAUUC	-2.36 ± 0.21	-1.55 ± 0.18
UACCAGCAAUAUUACGAUUG	-2.62 ± 0.084	-1.35 ± 0.079
UACCAGCAAUAUUACGCAGU	-4.06 ± 0.27	-2.62 ± 0.18
UACCAGCAAUAUUACGCGGC	-3.78 ± 0.13	-3.27 ± 0.18
UACCAGCAAUAUUACGCUAA	-1.14 ± 0.081	-0.492 ± 0.092
UACCAGCAAUAUUACGCUAC	-3.17 ± 0.2	-1.83 ± 0.18
UACCAGCAAUAUUACGCUCA	0.178 ± 0.073	0.378 ± 0.081

Source: the supplement of paper PMC7877785
